T1: UL128 expressed from MVA in BHK-21 cells (human cytomegalovirus, UniProt P16837 28-171)
T1 construct: whole, on cells
T1 sequence: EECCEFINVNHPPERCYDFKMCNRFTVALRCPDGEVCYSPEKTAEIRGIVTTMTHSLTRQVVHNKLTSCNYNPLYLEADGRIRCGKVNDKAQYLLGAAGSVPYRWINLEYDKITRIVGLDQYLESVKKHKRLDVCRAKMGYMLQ

B1: 12E2 (antibody, V domains shown)
VH: EVKLVESGGGLVQPGGSLKLSCATSGFTFSDYYMFWVRQTPEKKLEWVAYISNGGGSTYYPDTVKGRFTISRDNDKNTLYLQMSRLKSDDTALYYCVRPKRDFQYLYAMDYWGQGTSVTVSS
VL: DIVLTQSPASLAVSLGQRATISCRASKSVSTSGYSYMHWYQQKPGQSPKLLIYLASNLESGVPARFSGSGSGTDFTLNIHPVEDEDAATYYCQHSRELPWTFGGGTKLEIK
notes: also called NAb 12E2
B2: 4A3 (antibody, V domains shown)
VH: QVQLQQPGPELVRPGASVKLSCKASGYTFTIYWMNWVKQRPGQGLEWIGMIDPSDSETHYNQMFKDKATLTVDKSSSTAYMQLSSLTSEDSAVYYCASSGTGAYWGQGTLLTVSA
VL: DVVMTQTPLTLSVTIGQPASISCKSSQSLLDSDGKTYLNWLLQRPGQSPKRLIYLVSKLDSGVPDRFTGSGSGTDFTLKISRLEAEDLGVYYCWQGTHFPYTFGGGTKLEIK
notes: also called NAb 4A3
B3: 1B2 (antibody, V domains shown)
VH: EVQLVESGGVLVKPGGSLKLSCAASGFTFSDYYMYWVRQTPEKRLEWVATISDDGNYTNYPDSVKGRFTISRDNAKNNLYLQMSSLKSEDTAMYYCARGWLLPVFAYWGQGTLVTVSA
VL: DIVLTQSPATLSVTPGDSVSLSCRASQSIGNNLHWYQQKSHESPRLLIKYTSQSISGIPSRFSGSGSGTDFTLNINSVETEDFGVYFCQQSNRWPWTFGGGTKLEIK
notes: also called NAb 1B2

Columns and labels:
[1] = molecular target: T2, gH/gL/UL128/UL130/UL131A pentamer complex expressed from MVA-PC in BHK-21 cells (human cytomegalovirus, UniProt P12824 24-743; P16832 31-278; P16837 28-171; P16772 1-214; F5HET4 19-129); test: FC, biotinylated NAb titrated on MVA-PC-infected BHK-21 (cell surface PC)
T2 construct: whole, on cells

[2] = molecular target: T2, gH/gL/UL128/UL130/UL131A pentamer …; test: FC competition, MVA-PC BHK-21; unlabelled row Ab; competitor: biotinylated 12E2
[3] = molecular target: T2, gH/gL/UL128/UL130/UL131A pentamer …; test: FC competition, MVA-PC BHK-21; unlabelled row Ab; competitor: biotinylated 13B5
[4] = molecular target: gH/gL/UL128/UL130/UL131A pentamer complex (PC) of HCMV strain TR virus (human cytomegalovirus strain TR); test: cell-based or functional assay
[5] = molecular target: gH/gL/UL128/UL130/UL131A pentamer complex (PC) of HCMV strain TB40/E virus (human cytomegalovirus strain TB40/E); test: cell-based or functional assay
[6] = molecular target: T2, gH/gL/UL128/UL130/UL131A pentamer …; test: FC competition, MVA-PC BHK-21; unlabelled row Ab; competitor: biotinylated 18F10
[7] = molecular target: T2, gH/gL/UL128/UL130/UL131A pentamer …; test: FC competition, MVA-PC BHK-21; unlabelled row Ab; competitor: biotinylated 54E11
[8] = molecular target: T2, gH/gL/UL128/UL130/UL131A pentamer …; test: FC competition, MVA-PC BHK-21; unlabelled row Ab; competitor: biotinylated 21F6
[9] = molecular target: T2, gH/gL/UL128/UL130/UL131A pentamer …; test: FC competition, MVA-PC BHK-21; unlabelled row Ab; competitor: biotinylated 1B2
[10] = molecular target: T3, gH/gL/UL131A co-expressed from MVA in BHK-21 cells (human cytomegalovirus, UniProt P12824 24-743; P16832 31-278; F5HET4 19-129); test: intracellular FC, MVA-infected BHK-21
T3 construct: whole, on cells

[11] = molecular target: T4, UL128/UL130 co-expressed from MVA in BHK-21 cells (human cytomegalovirus, UniProt P16837 28-171; P16772 1-214); test: intracellular FC, MVA-infected BHK-21
T4 construct: whole, on cells

[12] = molecular target: T5, gH/gL/UL128/UL130 co-expressed from MVA in BHK-21 cells (human cytomegalovirus, UniProt P12824 24-743; P16832 31-278; P16837 28-171; P16772 1-214); test: intracellular FC, MVA-infected BHK-21
T5 construct: whole, on cells

[13] = molecular target: T6, gH/gL co-expressed from MVA in BHK-21 cells (human cytomegalovirus, UniProt P12824 24-743; P16832 31-278); test: intracellular FC, MVA-infected BHK-21
T6 construct: whole, on cells

[14] = molecular target: T7, gH/gL/UL128 co-expressed from MVA in BHK-21 cells (human cytomegalovirus, UniProt P12824 24-743; P16832 31-278; P16837 28-171); test: intracellular FC, MVA-infected BHK-21
T7 construct: whole, on cells

[15] = molecular target: T8, UL130/UL131A co-expressed from MVA in BHK-21 cells (human cytomegalovirus, UniProt P16772 1-214; F5HET4 19-129); test: intracellular FC, MVA-infected BHK-21
T8 construct: whole, on cells

[16] = molecular target: T9, UL130 expressed from MVA in BHK-21 cells (human cytomegalovirus, UniProt P16772 1-214); test: intracellular FC, MVA-infected BHK-21
T9 construct: whole, on cells

[17] = molecular target: T10, gH/gL/UL130/UL131A co-expressed from MVA in BHK-21 cells (human cytomegalovirus, UniProt P12824 24-743; P16832 31-278; P16772 1-214; F5HET4 19-129); test: intracellular FC, MVA-infected BHK-21
T10 construct: whole, on cells

[18] = molecular target: T11, UL131A expressed from MVA in BHK-21 cells (human cytomegalovirus, UniProt F5HET4 19-129); test: intracellular FC, MVA-infected BHK-21
T11 construct: whole, on cells

[19] = molecular target: T1, UL128 expressed from MVA in BHK-21 cells; test: intracellular FC, MVA-infected BHK-21
[20] = molecular target: T12, gH/gL/UL130 co-expressed from MVA in BHK-21 cells (human cytomegalovirus, UniProt P12824 24-743; P16832 31-278; P16772 1-214); test: intracellular FC, MVA-infected BHK-21
T12 construct: whole, on cells

[21] = molecular target: T13, UL128/UL131A co-expressed from MVA in BHK-21 cells (human cytomegalovirus, UniProt P16837 28-171; F5HET4 19-129); test: intracellular FC, MVA-infected BHK-21
T13 construct: whole, on cells

[22] = molecular target: T14, gH expressed from MVA in BHK-21 cells (human cytomegalovirus, UniProt P12824 24-743); test: intracellular FC, MVA-infected BHK-21
T14 construct: whole, on cells

[23] = molecular target: T15, gH/gL/UL128/UL131A co-expressed from MVA in BHK-21 cells (human cytomegalovirus, UniProt P12824 24-743; P16832 31-278; P16837 28-171; F5HET4 19-129); test: intracellular FC, MVA-infected BHK-21
T15 construct: whole, on cells

Binder | IC50, neutralization of TR infection of ARPE-19 [4] | IC50, neutralization of TR infection of HUVEC [4] | IC50, neutralization of TR infection of MRC-5 [4] | IC50, neutralization of TB40/E infection of ARPE-19 [5] | IC50, neutralization of TB40/E infection of HUVEC [5] | IC50, neutralization of TB40/E infection of MRC-5 [5] | binding result [10] | binding result [11] | binding result [12] | binding result [13] | binding result [14] | binding result [15] | binding result [16] | binding result [17] | binding result [18] | binding result [19] | binding result [20] | binding result [21] | binding result [22] | binding result [23] | other results
B1 | 3.1 ng/mL | 4.2 ng/mL | > 25000 ng/mL | 3.7 ng/mL | 6 ng/mL | > 25000 ng/mL | no binding | no binding | no binding | no binding | no binding | no binding | no binding | no binding | no binding | no binding | no binding | no binding | no binding | no binding | EC50 [1]: 1.1 nM; Binding Inhibition (%) [2]: 100%; Binding Inhibition (%) [3]: 0%; IC50, inhibition of TR cell-to-cell spread in ARPE-19 [4]: 17 µg/mL; IC50, inhibition of TB40/E cell-to-cell spread in ARPE-19 [5]: 15 µg/mL; IC50, neutralization of TB40/E infection of CTB [5]: 72.1 ng/mL; Binding Inhibition (%) [6]: 0%; Binding Inhibition (%) [7]: 0%; Binding Inhibition (%) [8]: 0%; Binding Inhibition (%) [9]: 100%
B2 | 44.6 ng/mL | 10.2 ng/mL | > 25000 ng/mL | 80.2 ng/mL | 46.4 ng/mL | > 25000 ng/mL | no binding | no binding | no binding | no binding | no binding | no binding | no binding | no binding | no binding | no binding | no binding | no binding | no binding | no binding | 
B3 | 0.3 ng/mL | 0.7 ng/mL | > 25000 ng/mL | 0.6 ng/mL | 0.5 ng/mL | > 25000 ng/mL | no binding | no binding | no binding | no binding | no binding | no binding | no binding | no binding | no binding | no binding | no binding | no binding | no binding | no binding | EC50 [1]: 0.32 nM; Binding Inhibition (%) [2]: 100%; Binding Inhibition (%) [3]: 0%; IC50, inhibition of TR cell-to-cell spread in ARPE-19 [4]: 1.4 µg/mL; IC50, inhibition of TB40/E cell-to-cell spread in ARPE-19 [5]: 1 µg/mL; IC50, neutralization of TB40/E infection of CTB [5]: 12.6 ng/mL; Binding Inhibition (%) [6]: 0%; Binding Inhibition (%) [7]: 0%; Binding Inhibition (%) [8]: 0%; Binding Inhibition (%) [9]: 100%
